Measured values reported in article PMC7917804.

Target: poly(A)-binding protein (PABP), P11940
Assay: co-immunoprecipitation with anti-FLAG antibody, Western blot quantified with ImageJ
Conditions: chain shown with the change, HeLa cells, parent: est. 1.0, read off a plot

Sequence of poly(A)-binding protein (PABP), P11940 (P11940 whole entry): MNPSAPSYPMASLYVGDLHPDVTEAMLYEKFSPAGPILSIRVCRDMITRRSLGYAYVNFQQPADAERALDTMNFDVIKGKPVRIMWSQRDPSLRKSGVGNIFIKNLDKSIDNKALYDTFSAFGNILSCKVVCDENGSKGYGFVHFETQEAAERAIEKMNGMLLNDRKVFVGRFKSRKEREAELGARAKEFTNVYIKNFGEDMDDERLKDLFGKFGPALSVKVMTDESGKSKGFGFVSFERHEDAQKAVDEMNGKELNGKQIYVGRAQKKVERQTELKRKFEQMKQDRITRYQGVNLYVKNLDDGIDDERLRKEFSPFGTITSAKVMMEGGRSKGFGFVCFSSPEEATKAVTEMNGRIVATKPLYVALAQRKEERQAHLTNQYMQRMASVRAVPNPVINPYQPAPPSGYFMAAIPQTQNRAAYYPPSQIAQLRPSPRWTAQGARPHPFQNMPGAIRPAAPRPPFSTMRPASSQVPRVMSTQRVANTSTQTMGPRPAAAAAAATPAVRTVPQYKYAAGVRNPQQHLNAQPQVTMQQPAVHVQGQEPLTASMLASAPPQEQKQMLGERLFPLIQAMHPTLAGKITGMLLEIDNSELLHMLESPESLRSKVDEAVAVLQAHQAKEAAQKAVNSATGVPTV

Row | response (two independent experiments) | response (three independent experiments) | Binder
1 | 0.89 | – | FLAG-HA-SBP (FHS)-tagged full-length TNRC6A, wild type, Q8NDV7-2 S1616A; S1691A (protein) MDADSASSSESERNITIMASGNTGGEKDGLRNSTGLGSQNKFVVGSSSNNVGHGSSTGPWGFSHGAIISTCQVSVDAPESKSESSNNRMNAWGTVSSSSNGGLNPSTLNSASNHGAWPVLENNGLALKGPVGSGSSGINIQCSTIGQMPNNQSINSKVSGGSTHGTWGSLQETCESEVSGTQKVSFSGQPQNITTEMTGPNNTTNFMTSSLPNSGSVQNNELPSSNTGAWRVSTMNHPQMQAPSGMNGTSLSHLSNGESKSGGSYGTTWGAYGSNYSGDKCSGPNGQANGDTVNATLMQPGVNGPMGTNFQVNTNKGGGVWESGAANSQSTSWGSGNGANSGGSRRGWGTPAQNTGTNLPSVEWNKLPSNQHSNDSANGNGKTFTNGWKSTEEEDQGSATSQTNEQSSVWAKTGGTVESDGSTESTGRLEEKGTGESQSRDRRKIDQHTLLQSIVNRTDLDPRVLSNSGWGQTPIKQNTAWDTETSPRGERKTDNGTEAWGSSATQTFNSGACIDKTSPNGNDTSSVSGWGDPKPALRWGDSKGSNCQGGWEDDSAATGMVKSNQWGNCKEEKAAWNDSQKNKQGWGDGQKSSQGWSVSASDNWGETSRNNHWGEANKKSSSGGSDSDRSVSGWNELGKTSSFTWGNNINPNNSSGWDESSKPTPSQGWGDPPKSNQSLGWGDSSKPVSSPDWNKQQDIVGSWGIPPATGKPPGTGWLGGPIPAPAKEEEPTGWEEPSPESIRRKMEIDDGTSAWGDPSKYNYKNVNMWNKNVPNGNSRSDQQAQVHQLLTPASAISNKEASSGSGWGEPWGEPSTPATTVDNGTSAWGKPIDSGPSWGEPIAAASSTSTWGSSSVGPQALSKSGPKSMQDGWCGDDMPLPGNRPTGWEEEEDVEIGMWNSNSSQELNSSLNWPPYTKKMSSKGLSGKKRRRERGMMKGGNKQEEAWINPFVKQFSNISFSRDSPEENVQSNKMDLSGGMLQDKRMEIDKHSLNIGDYNRTVGKGPGSRPQISKESSMERNPYFDKDGIVADESQNMQFMSSQSMKLPPSNSALPNQALGSIAGLGMQNLNSVRQNGNPSMFGVGNTAAQPRGMQQPPAQPLSSSQPNLRAQVPPPLLSPQVPVSLLKYAPNNGGLNPLFGPQQVAMLNQLSQLNQLSQISQLQRLLAQQQRAQSQRSVPSGNRPQQDQQGRPLSVQQQMMQQSRQLDPNLLVKQQTPPSQQQPLHQPAMKSFLDNVMPHTTPELQKGPSPINAFSNFPIGLNSNLNVNMDMNSIKEPQSRLRKWTTVDSISVNTSLDQNSSKHGAISSGFRLEESPFVPYDFMNSSTSPASPPGSIGDGWPRAKSPNGSSSVNWPPEFRPGEPWKGYPNIDPETDPYVTPGSVINNLSINTVREVDHLRDRNSGSSSSLNTTLPSTSAWSSIRASNYNVPLSSTAQSTSARNSDSKLTWSPGSVTNTSLAHELWKVPLPPKNITAPSRPPPGLTGQKPPLSTWDNSPLRIGGGWGNSDARYTPGSSWGESSSGRITNWLVLKNLTPQIDGSTLRTLCMQHGPLITFHLNLPHGNALVRYSSKEEVVKAQKSLHMCVLGNTTILAEFASEEEISRFFAQSQSLTPAPGWQSLGSSQSRLGSLDCSHSFSSRTDLNHWNGAGLSGTNCGDLHGTSLWGTPHYSTSLWGPPSSSDPRGISSPAPINAFLSVDHLGGGGESM
2 | – | 0.81 | FLAG-HA-SBP (FHS)-tagged TNRC6A-SD-WT, Q8NDV7-2 S1616A; S1691A (protein) PLHQPAMKSFLDNVMPHTTPELQKGPSPINAFSNFPIGLNSNLNVNMDMNSIKEPQSRLRKWTTVDSISVNTSLDQNSSKHGAISSGFRLEESPFVPYDFMNSSTSPASPPGSIGDGWPRAKSPNGSSSVNWPPEFRPGEPWKGYPNIDPETDPYVTPGSVINNLSINTVREVDHLRDRNSGSSSSLNTTLPSTSAWSSIRASNYNVPLSSTAQSTSARNSDSKLTWSPGSVTNTSLAHELWKVPLPPKNITAPSRPPPGLTGQKPPLSTWDNSPLRIGGGWGNSDARYTPGSSWGESSSGRITNWLVLKNLTPQIDGSTLRTLCMQHGPLITFHLNLPHGNALVRYSSKEEVVKAQKSLHMCVLGNTTILAEFASEEEISRFFAQSQSLTPAPGWQSLGSSQSRLGSLDCSHSFSSRTDLNHWNGAGLSGTNCGDLHGTSLWGTPHYSTSLWGPPSSSDPRGISSPAPINAFLSVDHLGGGGESM
